The target in one experiment is human CD64 (FcγRI) (UniProt P12314). The experiment in a line: ELISA. As to conditions: highest concentration point (about 500 nM); parent: est. 3.4; read off a plot.
A further experiment addresses murine CD64 (FcγRI) (UniProt P26151). The experiment in a line: ELISA. As to conditions: highest concentration point (about 1e4 nM); parent: est. 1.2; read off a plot. (In general: In an ELISA, binding on a coated surface is turned into a signal by an enzyme label.)
A further experiment addresses MSLN. The experiment in a line: BLI (Blitz). As to conditions: 800nM trace, read at end of association (about 120 s); parent: est. 0.63; read off a plot.

Sequence of UniProt P12314 (P12314 16-374): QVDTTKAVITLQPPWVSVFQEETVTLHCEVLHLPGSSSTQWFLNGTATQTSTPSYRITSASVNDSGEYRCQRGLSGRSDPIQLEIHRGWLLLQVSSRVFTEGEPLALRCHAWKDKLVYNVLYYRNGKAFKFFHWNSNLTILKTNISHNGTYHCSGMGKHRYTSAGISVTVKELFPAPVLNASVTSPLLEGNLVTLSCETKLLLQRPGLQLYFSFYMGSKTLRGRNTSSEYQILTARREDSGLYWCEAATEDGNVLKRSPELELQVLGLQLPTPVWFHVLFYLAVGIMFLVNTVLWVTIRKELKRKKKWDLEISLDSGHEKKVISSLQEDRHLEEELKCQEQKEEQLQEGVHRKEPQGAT
Sequence of UniProt P26151 (P26151 25-404): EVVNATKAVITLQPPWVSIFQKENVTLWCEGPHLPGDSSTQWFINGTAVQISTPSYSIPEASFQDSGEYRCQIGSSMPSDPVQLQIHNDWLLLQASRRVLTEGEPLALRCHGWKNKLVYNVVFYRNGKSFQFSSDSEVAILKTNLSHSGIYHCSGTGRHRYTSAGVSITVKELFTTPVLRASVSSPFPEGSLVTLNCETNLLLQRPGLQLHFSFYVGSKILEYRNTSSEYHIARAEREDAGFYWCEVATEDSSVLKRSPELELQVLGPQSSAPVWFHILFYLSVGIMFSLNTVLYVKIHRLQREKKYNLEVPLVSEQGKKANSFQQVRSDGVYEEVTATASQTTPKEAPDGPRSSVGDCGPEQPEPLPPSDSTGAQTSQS

For “2A10-VH-FcWT (from UniProt P01857) G236R; L328R”, the response in the experiment with human CD64 (FcγRI) stood at 0.27 OD450; in the experiment with murine CD64 (FcγRI) it was 0.3 OD450; with MSLN, 0.78 nm.

Turning to “2A10-VH-FcWT (from UniProt P01857) L234A; L235A; P329G”, the response with human CD64 (FcγRI) came out at 0.22 OD450; in the experiment with murine CD64 (FcγRI) it was 0.25 OD450; with MSLN, 0.78 nm.

Values taken from paper PMC12828721.
